Literature values in publication PMC5033469.

Target: CD11c I domain (Homo sapiens) (UniProt P20702)
Sequence (P20702 165-339): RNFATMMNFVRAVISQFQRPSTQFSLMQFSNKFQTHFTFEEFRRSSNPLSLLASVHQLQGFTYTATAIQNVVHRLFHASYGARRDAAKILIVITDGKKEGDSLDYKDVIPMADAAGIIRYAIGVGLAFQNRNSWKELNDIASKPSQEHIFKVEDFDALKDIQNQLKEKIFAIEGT

fibrinogen, sequence (P02671 36-866): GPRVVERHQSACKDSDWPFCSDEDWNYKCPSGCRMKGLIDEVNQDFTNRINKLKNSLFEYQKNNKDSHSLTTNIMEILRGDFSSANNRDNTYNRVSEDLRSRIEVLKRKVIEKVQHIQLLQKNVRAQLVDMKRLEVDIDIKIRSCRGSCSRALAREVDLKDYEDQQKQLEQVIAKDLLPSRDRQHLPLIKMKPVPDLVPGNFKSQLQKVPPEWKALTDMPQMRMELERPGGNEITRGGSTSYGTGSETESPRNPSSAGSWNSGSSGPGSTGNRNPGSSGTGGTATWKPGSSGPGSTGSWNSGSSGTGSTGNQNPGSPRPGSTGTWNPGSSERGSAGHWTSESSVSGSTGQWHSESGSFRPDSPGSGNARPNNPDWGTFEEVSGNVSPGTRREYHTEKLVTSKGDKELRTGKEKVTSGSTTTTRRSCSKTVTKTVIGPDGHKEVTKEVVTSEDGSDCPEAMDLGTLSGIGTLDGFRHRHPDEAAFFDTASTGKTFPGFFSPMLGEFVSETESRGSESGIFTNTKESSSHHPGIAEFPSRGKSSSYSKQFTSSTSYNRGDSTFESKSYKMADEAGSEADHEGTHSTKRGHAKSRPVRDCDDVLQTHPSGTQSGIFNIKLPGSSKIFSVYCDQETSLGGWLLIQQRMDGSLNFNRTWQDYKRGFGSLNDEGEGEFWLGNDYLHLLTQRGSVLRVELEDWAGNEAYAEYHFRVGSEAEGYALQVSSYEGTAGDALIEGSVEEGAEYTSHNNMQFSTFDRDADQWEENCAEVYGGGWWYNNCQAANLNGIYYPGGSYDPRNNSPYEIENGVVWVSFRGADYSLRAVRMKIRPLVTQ
fibrinogen, sequence (P02675 45-491, further chain): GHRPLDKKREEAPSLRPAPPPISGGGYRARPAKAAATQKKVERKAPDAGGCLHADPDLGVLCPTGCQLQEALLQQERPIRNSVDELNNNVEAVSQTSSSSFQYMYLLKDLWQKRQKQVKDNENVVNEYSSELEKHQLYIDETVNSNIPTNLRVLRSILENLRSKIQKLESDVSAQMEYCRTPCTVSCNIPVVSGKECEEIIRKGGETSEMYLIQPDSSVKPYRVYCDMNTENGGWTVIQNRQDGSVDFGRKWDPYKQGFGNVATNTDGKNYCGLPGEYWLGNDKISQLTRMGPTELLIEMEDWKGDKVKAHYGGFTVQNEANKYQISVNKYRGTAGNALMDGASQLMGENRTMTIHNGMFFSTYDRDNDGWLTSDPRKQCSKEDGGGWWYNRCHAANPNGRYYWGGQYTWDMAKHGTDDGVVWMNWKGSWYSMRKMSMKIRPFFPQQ
fibrinogen, sequence (P02679 27-453, further chain): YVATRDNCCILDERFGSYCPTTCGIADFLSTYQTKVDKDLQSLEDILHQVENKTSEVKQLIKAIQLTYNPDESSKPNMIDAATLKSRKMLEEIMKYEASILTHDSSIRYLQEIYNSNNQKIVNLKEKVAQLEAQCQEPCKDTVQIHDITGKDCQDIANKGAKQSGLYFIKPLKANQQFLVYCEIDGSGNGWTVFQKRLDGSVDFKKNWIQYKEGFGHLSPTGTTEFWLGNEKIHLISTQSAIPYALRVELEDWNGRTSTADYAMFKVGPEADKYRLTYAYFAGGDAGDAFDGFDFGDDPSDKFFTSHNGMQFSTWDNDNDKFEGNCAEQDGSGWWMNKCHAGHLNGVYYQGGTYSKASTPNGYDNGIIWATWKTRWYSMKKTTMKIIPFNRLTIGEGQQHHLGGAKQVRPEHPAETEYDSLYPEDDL

Kd: 50 µM
Substance: fibrinogen (from UniProt P02671)
